Laboratory results: the supplement of paper PMC7125110
± gives the standard error. Variants at the floor of the assay were thinned out.

B1: glmS ribozyme (parent)
chain: AUAAAAGCGCCAGAACUACAGAAAUGUAGUUGACGAGGAGGAGGUUUAUCGAAUUUUCGGCGGAUGCCUCCAAA

Key:
Settings in all cases: with glucosamine-6-phosphate
glucosamine-6-phosphate [1] = variants of: B1; experiment: self-cleavage kobs at 40 uM GlcN6P; higher = faster cleavage; RNA array
Procedure, shortened: (§1)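 Glucosamine-6-phosphate, from 40 μM to 10 mM in HEPES/KCl/Mg(OAc)2 buffer, was flowed over sequenced MiSeq chips carrying barcoded ribozyme variants transcribed in situ by E. coli RNA polymerase. A hybridised Cy3 probe tracked the variants at 37 °C as tiles were imaged over ~14 h. kobs, kcat and KM were obtained by fitting normalised per-tile medians to exponential decays and then applying weighted Michaelis–Menten fits across concentrations.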

glucosamine-6-phosphate [2] = variants of: B1; experiment: self-cleavage kobs at 2500 uM GlcN6P; higher = faster cleavage; RNA array
Procedure, shortened: as §1

glucosamine-6-phosphate [3] = variants of: B1; experiment: self-cleavage kobs at 640 uM GlcN6P; higher = faster cleavage; RNA array
Procedure, shortened: as §1

glucosamine-6-phosphate [4] = variants of: B1; experiment: self-cleavage kobs at 160 uM GlcN6P; higher = faster cleavage; RNA array
Procedure, shortened: as §1

glucosamine-6-phosphate [5] = variants of: B1; experiment: self-cleavage kobs at 10000 uM GlcN6P; higher = faster cleavage; RNA array
Procedure, shortened: as §1

Variant | self-cleavage kobs at 40 uM GlcN6P (glucosamine-6-phosphate [1]) [s⁻¹] | self-cleavage kobs at 2500 uM GlcN6P (glucosamine-6-phosphate [2]) [s⁻¹] | self-cleavage kobs at 640 uM GlcN6P (glucosamine-6-phosphate [3]) [s⁻¹] | self-cleavage kobs at 160 uM GlcN6P (glucosamine-6-phosphate [4]) [s⁻¹] | self-cleavage kobs at 10000 uM GlcN6P (glucosamine-6-phosphate [5]) [s⁻¹]
A42G U47G C61U U69G | < 1e-05 | < 1e-05 |  |  | 
G43U G51A | < 1e-05 |  | < 1e-05 |  | 
G43A G44U | < 1e-05 |  | < 1e-05 | < 1e-05 | < 1e-05
U46C A52C | < 1e-05 |  |  | < 1e-05 | 
G41C A42C | < 1e-05 | < 1e-05 | < 1e-05 | < 1e-05 | 
G43U A53U U65G | < 1e-05 |  | < 1e-05 |  | 
G41A G63U | < 1e-05 | < 1e-05 | < 1e-05 | < 1e-05 | < 1e-05
A42C U45A | < 1e-05 | < 1e-05 | < 1e-05 |  | 
G43A A64U C67U | < 1e-05 | < 1e-05 | < 1e-05 |  | < 1e-05
U46A A48C C70G C71U | < 1e-05 |  |  |  | < 1e-05
G43A U49G | < 1e-05 | < 1e-05 | < 1e-05 | < 1e-05 | 
G44A U56C | < 1e-05 |  |  | < 1e-05 | < 1e-05
G41C G60C | < 1e-05 | < 1e-05 | < 1e-05 | < 1e-05 | < 1e-05
G41C G60U | < 1e-05 | < 1e-05 | < 1e-05 | < 1e-05 | 
G41C G60A | < 1e-05 |  | < 1e-05 |  | < 1e-05
U45G G60U C67U C70A | < 1e-05 |  | < 1e-05 |  | < 1e-05
G44U A64U | < 1e-05 | < 1e-05 | < 1e-05 | < 1e-05 | < 1e-05
A42G C67U | 0.000328 ± 4.2e-05 | 0.00245 ± 0.00057 | 0.00155 ± 0.00035 | 0.00136 ± 0.00031 | 0.00807 ± 0.0016
A42G C67A | 0.000813 ± 0.00013 | 0.00552 ± 0.0024 | 0.008 ± 0.0032 | 0.00197 ± 0.00067 | 0.0213 ± 0.0053
G41C A53C C61A | < 1e-05 |  |  |  | < 1e-05
G41A C68U | < 1e-05 | 1.85e-05 ± 7.6e-06 |  | < 1e-05 | 2.09e-05 ± 8.7e-06

Variant | self-cleavage kobs at 40 uM GlcN6P (glucosamine-6-phosphate [1]) [s⁻¹] | self-cleavage kobs at 2500 uM GlcN6P (glucosamine-6-phosphate [2]) [s⁻¹] | self-cleavage kobs at 640 uM GlcN6P (glucosamine-6-phosphate [3]) [s⁻¹] | self-cleavage kobs at 160 uM GlcN6P (glucosamine-6-phosphate [4]) [s⁻¹] | self-cleavage kobs at 10000 uM GlcN6P (glucosamine-6-phosphate [5]) [s⁻¹]
G41U G44A | < 1e-05 | < 1e-05 | < 1e-05 | < 1e-05 | < 1e-05
U45G C50A U65G | < 1e-05 |  | < 1e-05 |  | 
G43A A64U | < 1e-05 | < 1e-05 | < 1e-05 | < 1e-05 | < 1e-05
G41A C67U U69A | < 1e-05 |  |  |  | 
A42C U65G C70G C71G | < 1e-05 |  |  |  | 
G44C G60A U69G | < 1e-05 |  |  |  | 
G43C G51U | < 1e-05 |  |  |  | < 1e-05
G40U G41C A48U | < 1e-05 |  |  |  | 
A42U G59U | < 1e-05 |  | < 1e-05 | < 1e-05 | < 1e-05
A42U G59C | < 1e-05 | < 1e-05 | < 1e-05 | < 1e-05 | < 1e-05
A42G G44U | < 1e-05 |  |  | < 1e-05 | 3.58e-05 ± 1.2e-05
G43C C70G | < 1e-05 | < 1e-05 | < 1e-05 |  | < 1e-05
G44A C50G U55A | < 1e-05 | < 1e-05 | < 1e-05 |  | 
G40U G59C | < 1e-05 |  | < 1e-05 |  | 
G43U G60C | < 1e-05 |  | < 1e-05 | < 1e-05 | < 1e-05
G43A U47G | < 1e-05 |  | < 1e-05 |  | 
U45A A52U | < 1e-05 |  | 0.000476 ± 0.00013 |  | 0.001 ± 0.00019
G41U G43U U57G G62A C68A | < 1e-05 | < 1e-05 | < 1e-05 | < 1e-05 | < 1e-05
U46C A64C | < 1e-05 | < 1e-05 |  |  | < 1e-05
G44A A48U U69G | < 1e-05 | < 1e-05 |  |  | 
G43C C71A | < 1e-05 | < 1e-05 | < 1e-05 | < 1e-05 | 
